We go through one substance from paper PMC10350833.

The target of one assay is GFP-p62^S349A (human) (UniProt Q13501).
The next assay addresses GFP-p62^S349E (human) (UniProt Q13501).

As for “mCherry-tagged KEAP1 (from UniProt Q14145 1-624) (natural protein)”, the FLIP: signal intensity of mCherry-KEAP1 in GFP-p62 bodies of the non-bleached area, percent of the baseline value at 30 min after photobleaching (efflux of KEAP1) in the assay with GFP-p62^S349A (human) stood at 58.2%; in the assay with GFP-p62^S349E (human) it was 72%.
